Test results reported in IntAct's records for PubMed 9874765.

Target: cir1_human CIR1 (UniProt Q86X95)
Sequence (Q86X95 whole entry): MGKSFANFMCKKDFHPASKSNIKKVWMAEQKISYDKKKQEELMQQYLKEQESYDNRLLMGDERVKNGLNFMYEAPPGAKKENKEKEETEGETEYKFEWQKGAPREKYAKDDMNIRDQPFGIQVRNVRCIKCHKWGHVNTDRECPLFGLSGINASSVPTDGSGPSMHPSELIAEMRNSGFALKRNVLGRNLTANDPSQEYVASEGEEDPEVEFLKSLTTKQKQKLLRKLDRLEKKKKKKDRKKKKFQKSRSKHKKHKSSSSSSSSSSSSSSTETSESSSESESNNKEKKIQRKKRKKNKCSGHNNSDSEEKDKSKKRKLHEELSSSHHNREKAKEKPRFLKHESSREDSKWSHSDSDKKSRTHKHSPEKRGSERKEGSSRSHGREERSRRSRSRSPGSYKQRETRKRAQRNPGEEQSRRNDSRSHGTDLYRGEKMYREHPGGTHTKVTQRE

Recombining binding protein suppressor of hairless (Homo sapiens), Q06330 K249A;L250A;V251A, sequence (Q06330 whole entry K249A/L250A/V251A): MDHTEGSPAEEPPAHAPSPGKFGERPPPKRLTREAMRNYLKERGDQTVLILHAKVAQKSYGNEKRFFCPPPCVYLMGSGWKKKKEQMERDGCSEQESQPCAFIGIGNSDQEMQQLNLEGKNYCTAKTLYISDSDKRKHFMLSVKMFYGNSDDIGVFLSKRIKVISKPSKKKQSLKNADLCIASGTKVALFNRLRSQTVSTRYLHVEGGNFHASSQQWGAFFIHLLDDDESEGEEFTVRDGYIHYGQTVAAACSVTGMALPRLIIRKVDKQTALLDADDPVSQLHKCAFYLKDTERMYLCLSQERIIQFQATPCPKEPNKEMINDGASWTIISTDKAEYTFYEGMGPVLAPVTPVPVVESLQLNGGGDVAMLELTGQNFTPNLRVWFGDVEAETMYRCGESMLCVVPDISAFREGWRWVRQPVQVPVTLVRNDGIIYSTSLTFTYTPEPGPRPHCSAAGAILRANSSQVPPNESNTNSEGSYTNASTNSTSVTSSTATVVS
Recombining binding protein suppressor of hairless (Homo sapiens), Q06330 E233A;E234A;F235A, sequence (Q06330 whole entry E233A/E234A/F235A): as the sequence (Q06330 whole entry K249A/L250A/V251A) above, with E233A, E234A, F235A, A249K, A250L, A251V counted along it

Row | Substance | effect of a mutation on the interaction
1 | Recombining binding protein suppressor of hairless (Homo sapiens), Q06330 E233A;E234A;F235A | disrupting interaction strength
2 | Recombining binding protein suppressor of hairless (Homo sapiens), Q06330 K249A;L250A;V251A | disrupting interaction strength
